Source: paper PMC10794148
Values joined by “and” are separate entries in the source; they are usually repeats but may differ in a detail not shown here. Equal values may be shown once. One block for each substance: values may come before it.

Columns and labels:
[1] = target: 6×His-Sumo tagged mouse cGAS catalytic domain (UniProt Q8C6L5); experiment: TR-FRET competition assay; conditions: unlabelled competitor at the highest titrated concentration, est. ~5,000 nM; signal is residual cGAS-biotin-NCP TR-FRET (lower = more competition); parent: est. 0.16; read off a plot
[2] = target: human nucleosome core particle, wild type, unlabelled (human) (UniProt P04908); experiment: native gel or EMSA; 50 or 100 nM 147-bp hNCP with 200 or 50 nM mcGAS-CR and 0–1.2 µM MRN; 20 mM HEPES pH 7.5, 50 mM NaCl, 5% sucrose, 1 mM DTT; on ice; gel scanned for mcGAS-CR fluorescence, then ethidium bromide
[3] = target: 147 bp nucleosome reconstituted with H2B(K125C)-biotin (human) (UniProt P04908); experiment: AlphaScreen or HTRF; TR-FRET competition: 15 nM 6×His-Sumo-mcGAS, 2 nM biotin NCP, 4 nM Eu-W1024 streptavidin, 10 nM ULight-anti-6×His; 0–2,000 nM untagged MRN or 0–5,000 nM unlabelled nucleosome; 10 mM Tris-HCl pH 7.5, 50 mM NaCl, 5% glycerol, 0.01% NP-40, 0.01% CHAPS, 5 mM DTT, 100 µg/ml BSA; 1 h at room temperature

response (normalized fluorescence) [1]: 0.63
Substance: human nucleosome core particle, wild type, unlabelled (from UniProt P04908;P62807;Q71DI3;P62805) H2A:E61A; H2A:E64S; H2A:N68A; H2A:D72S; H2A:N89A; H2A:D90A; H2A:E91S

stoichiometry N [2]: 1 cGAS per NCP and 2 cGAS per NCP
Substance: carboxyrhodamine-labelled mouse cGAS catalytic domain (from UniProt Q8C6L5 141-507) (domain or fragment)

percent reduction of the cGAS–NCP TR-FRET signal at plateau [3]: 50%
Substance: untagged MRN complex (mixture of 2 unlabelled MR:1 NBS1–Flag) (from UniProt P49959 1-708; Q92878 1-1312; O60934 1-754)
